# According to the supplement of paper PMC10567573:
# B1: ELF3 (parent)
# chain: RLVYKFGKNSSGWKEEEVLQSRN
# Variants of: B1
# Experiment: protein stability index of a GFP-peptide fusion (GPS, HEK-293T) (PSI 1-6); higher = more stable
# Settings: c terminus: native
# 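Note: lentivirally expressed fusions sorted by FACS into six bins by GFP to DsRed ratio, PSI derived from sequencing read proportions per bin multiplied by bin number.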
row,Variant,protein stability index
1,RLVYKFGKNSSGWKGEEVLQSRN [E15G],1.76
2,RLVYKFGKNSSGWKHEEVLQSRN [E15H],2.81
3,RLVYKFGKNSSGWKIEEVLQSRN [E15I],1.55
4,RLVYKFGKNSSGWKKEEVLQSRN [E15K],3.27
5,RLVYKFGKNSSGWKNEEVLQSRN [E15N],1.94
6,RLVYKFGKNSSGWKQEEVLQSRN [E15Q],1.76
7,RLVYKFGKNSSGWKVEEVLQSRN [E15V],2.49
8,RLVYKFGKNSSGWKWEEVLQSRN [E15W],1.86
9,RLVYKFGKNSSGWKECEVLQSRN [E16C],1.94
10,RLVYKFGKNSSGWKEDEVLQSRN [E16D],2.15
11,RLVYKFGKNSSGWKEFEVLQSRN [E16F],3.9
12,RLVYKFGKNSSGWKEGEVLQSRN [E16G],1.5
13,RLVYKFGKNSSGWKEHEVLQSRN [E16H],1.25
14,RLVYKFGKNSSGWKEIEVLQSRN [E16I],3.06
15,RLVYKFGKNSSGWKEKEVLQSRN [E16K],2.46
16,RLVYKFGKNSSGWKELEVLQSRN [E16L],3.56
17,RLVYKFGKNSSGWKENEVLQSRN [E16N],2.51
18,RLVYKFGKNSSGWKEQEVLQSRN [E16Q],1.25
19,RLVYKFGKNSSGWKEVEVLQSRN [E16V],1.04
20,RLVYKFGKNSSGWKEYEVLQSRN [E16Y],2.91
21,RLVYKFGKNSSGWKEEAVLQSRN [E17A],2.06
22,RLVYKFGKNSSGWKEECVLQSRN [E17C],2.62
23,RLVYKFGKNSSGWKEEDVLQSRN [E17D],1.75
24,RLVYKFGKNSSGWKEEFVLQSRN [E17F],1.75
25,RLVYKFGKNSSGWKEEGVLQSRN [E17G],1.93

row,Variant,protein stability index
1,RLVYKFGKNSSGWKEEHVLQSRN [E17H],1.11
2,RLVYKFGKNSSGWKEEIVLQSRN [E17I],2.02
3,RLVYKFGKNSSGWKEEKVLQSRN [E17K],1.3
4,RLVYKFGKNSSGWKEEMVLQSRN [E17M],2.27
5,RLVYKFGKNSSGWKEENVLQSRN [E17N],1.6
6,RLVYKFGKNSSGWKEEPVLQSRN [E17P],2.22
7,RLVYKFGKNSSGWKEEQVLQSRN [E17Q],2.09
8,RLVYKFGKNSSGWKEESVLQSRN [E17S],1.13
9,RLVYKFGKNSSGWKEETVLQSRN [E17T],1.51
10,RLVYKFGKNSSGWKEEVVLQSRN [E17V],1.98
11,RLVYKFGKNSSGWKEEYVLQSRN [E17Y],2.98
12,RLVYKFGKNSSGWKEEEALQSRN [V18A],2.49
13,RLVYKFGKNSSGWKEEECLQSRN [V18C],2.44
14,RLVYKFGKNSSGWKEEEDLQSRN [V18D],3.45
15,RLVYKFGKNSSGWKEEEELQSRN [V18E],3.17
16,RLVYKFGKNSSGWKEEEFLQSRN [V18F],1.73
17,RLVYKFGKNSSGWKEEEGLQSRN [V18G],2.9
18,RLVYKFGKNSSGWKEEEHLQSRN [V18H],3.01
19,RLVYKFGKNSSGWKEEEILQSRN [V18I],2.32
20,RLVYKFGKNSSGWKEEEKLQSRN [V18K],2.94
21,RLVYKFGKNSSGWKEEELLQSRN [V18L],2.08
22,RLVYKFGKNSSGWKEEEMLQSRN [V18M],1.84
23,RLVYKFGKNSSGWKEEENLQSRN [V18N],2.59
24,RLVYKFGKNSSGWKEEEPLQSRN [V18P],2.81
25,RLVYKFGKNSSGWKEEEQLQSRN [V18Q],2.35

row,Variant,protein stability index
1,RLVYKFGKNSSGWKEEERLQSRN [V18R],2.29
2,RLVYKFGKNSSGWKEEESLQSRN [V18S],2.68
3,RLVYKFGKNSSGWKEEETLQSRN [V18T],2.16
4,RLVYKFGKNSSGWKEEEWLQSRN [V18W],1.62
5,RLVYKFGKNSSGWKEEEYLQSRN [V18Y],1.25
6,RLVYKFGKNSSGWKEEEVAQSRN [L19A],3.3
7,RLVYKFGKNSSGWKEEEVCQSRN [L19C],2.33
8,RLVYKFGKNSSGWKEEEVDQSRN [L19D],4.52
9,RLVYKFGKNSSGWKEEEVEQSRN [L19E],4.05
10,RLVYKFGKNSSGWKEEEVFQSRN [L19F],1.49
11,RLVYKFGKNSSGWKEEEVGQSRN [L19G],3.19
12,RLVYKFGKNSSGWKEEEVHQSRN [L19H],2.98
13,RLVYKFGKNSSGWKEEEVIQSRN [L19I],2.67
14,RLVYKFGKNSSGWKEEEVKQSRN [L19K],3.02
15,RLVYKFGKNSSGWKEEEVMQSRN [L19M],2.43
16,RLVYKFGKNSSGWKEEEVNQSRN [L19N],3.65
17,RLVYKFGKNSSGWKEEEVPQSRN [L19P],3.12
18,RLVYKFGKNSSGWKEEEVQQSRN [L19Q],3.85
19,RLVYKFGKNSSGWKEEEVRQSRN [L19R],2.51
20,RLVYKFGKNSSGWKEEEVTQSRN [L19T],3.84
21,RLVYKFGKNSSGWKEEEVVQSRN [L19V],2.55
22,RLVYKFGKNSSGWKEEEVYQSRN [L19Y],1.52
23,RLVYKFGKNSSGWKEEEVLASRN [Q20A],1.89
24,RLVYKFGKNSSGWKEEEVLCSRN [Q20C],2.22
25,RLVYKFGKNSSGWKEEEVLDSRN [Q20D],3.28

row,Variant,protein stability index
1,RLVYKFGKNSSGWKEEEVLESRN [Q20E],3.52
2,RLVYKFGKNSSGWKEEEVLGSRN [Q20G],3.4
3,RLVYKFGKNSSGWKEEEVLHSRN [Q20H],1.76
4,RLVYKFGKNSSGWKEEEVLISRN [Q20I],1.71
5,RLVYKFGKNSSGWKEEEVLKSRN [Q20K],1.25
6,RLVYKFGKNSSGWKEEEVLLSRN [Q20L],2.19
7,RLVYKFGKNSSGWKEEEVLMSRN [Q20M],2.06
8,RLVYKFGKNSSGWKEEEVLNSRN [Q20N],3.32
9,RLVYKFGKNSSGWKEEEVLPSRN [Q20P],2.38
10,RLVYKFGKNSSGWKEEEVLSSRN [Q20S],2.4
11,RLVYKFGKNSSGWKEEEVLTSRN [Q20T],1.58
12,RLVYKFGKNSSGWKEEEVLVSRN [Q20V],1.71
13,RLVYKFGKNSSGWKEEEVLWSRN [Q20W],1.67
14,RLVYKFGKNSSGWKEEEVLYSRN [Q20Y],1.79
15,RLVYKFGKNSSGWKEEEVLQARN [S21A],2.12
16,RLVYKFGKNSSGWKEEEVLQCRN [S21C],2.39
17,RLVYKFGKNSSGWKEEEVLQDRN [S21D],3.56
18,RLVYKFGKNSSGWKEEEVLQERN [S21E],3.19
19,RLVYKFGKNSSGWKEEEVLQFRN [S21F],1.94
20,RLVYKFGKNSSGWKEEEVLQGRN [S21G],2.26
21,RLVYKFGKNSSGWKEEEVLQIRN [S21I],2.41
22,RLVYKFGKNSSGWKEEEVLQKRN [S21K],2.95
